# In the supplement of paper PMC9732359:
# ± gives the uncertainty stated by the source.
# Assay: protein stability index of a GFP-peptide fusion (yeast GPS) (PSI 1-4); higher = more stable; sorted into four equal gates, so the index is relative within each strain
# Conditions: ubr1∆
# How it was run: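 Tiled 17-residue peptides from yeast proteins were fused downstream of GFP on a plasmid that also expresses Cherry, and the pooled library was carried in yeast. Mid-log cultures grown in leucine-free medium were sorted into four equal gates by GFP/Cherry fluorescence ratio. Plasmids from each gate were PCR-amplified and Illumina-sequenced, and reads were assigned to strains by barcodes. Each peptide's protein stability index is the sum, over gates, of the gate's read frequency multiplied by its gate number.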
row,Sequence,protein stability index
1,IVPDLIINPHAIPSRMT [RPB2],2.16 ± 0.047
2,IVWRFISENTFPNGFKN [RPC34],2.33 ± 0.046
3,IWLRKTSQMDLARDTPS [RRP4],1.5 ± 0.044
4,IWMRGHGTYFLDNMTYS [RRP4],2.19 ± 0.054
5,IYDFPGTPEATKGMITN [NUT2],3.3 ± 0.086
6,IYSSDAQGDPNLEPLIA [NUT1],3.35 ± 0.1
7,IYVHVRRSTPFSKIAEY [ESC2],2.52 ± 0.047
8,KAAISFGAKPEEQKSSD [YJL041W/NSP1],3.1 ± 0.12
9,KAEVTQLSNGIVVATEH [COR1],2.96 ± 0.11
10,KAFEERHQAGKNQWFFS [RPL27A],3.03 ± 0.055
11,KAFKNNSSKYYINEKES [SMC4],1.72 ± 0.064
12,KAGKVAVVVRGRYAGKK [RPL27A],1.78 ± 0.086
13,KAIFPNTVDGDLLKLVH [FAS1],1.92 ± 0.05
14,KAIRGMVSHKTARGKAA [RPL16B],2.62 ± 0.039
15,KAKERLQALKANDEEAY [SNF2],1.77 ± 0.045
16,KAKNPLTHSTPKNFGIG [RPL8B],3.08 ± 0.05
17,KAKSHFTNIISRNKALE [YJL039C/NUP192],2.68 ± 0.075
18,KALAIFVPVPSLAGFHK [RPS7A],1.85 ± 0.039
19,KAPNAVVITFEKEDHTL [RPB11],1.97 ± 0.076
20,KASTYGELVLDIEVPDV [SNF12],1.87 ± 0.045
21,KCKTRAQLTLKRCKHFE [RPL42A],2.68 ± 0.061
22,KCVVIHNGSHRTVAGFS [ARP7],2.67 ± 0.035
23,KDAVDYSKIPNILSNKP [RRP6],1.58 ± 0.049
24,KDFTNKNLIQLISLKLL [SRB8],1.91 ± 0.032
25,KDGRIRIFKITEKLSPL [YGL100W/SEH1],2.79 ± 0.045
26,KDKLREFIPHSTEYMMQ [RPN6],2.63 ± 0.087

row,Sequence,protein stability index
1,KDLETLYNKIWTEASSS [ECM29],2.51 ± 0.083
2,KDLVEIKKEEGKIDEAA [RPN5],3.62 ± 0.22
3,KDQLPDLESMGLTQLYK [MED7],3.13 ± 0.069
4,KDRISHEVVQDDSFSLL [PCI8],3.05 ± 0.075
5,KDSNKDVVVEGLRRARY [RPL10],3.38 ± 0.058
6,KDSSLNYSSESYRNAFT [YJL039C/NUP192],2.85 ± 0.047
7,KEDHPLEFYKDKFFNEV [SIR3],3.43 ± 0.084
8,KEILDNILPFLWGPHGL [ECM29],3.37 ± 0.17
9,KEIYYTPDPSELAAKEE [FAS2],2.531 ± 0.017
10,KEKIKNNRQLPYLVANV [RPT5],2.64 ± 0.081
11,KELAELKVQKLSRPSLP [RPL35A],2.74 ± 0.048
12,KELENNLERLRSDLQSK [YIL149C/MLP2],3.2 ± 0.053
13,KELESIDVLLEQTTGGN [RPB4],3.22 ± 0.26
14,KERIVRAFLIEEQKIVK [RPL34B],2.74 ± 0.12
15,KERLTKEAAAIAEGKSK [RPL8B],2.38 ± 0.033
16,KETIARVTGGMKVKADR [RPS14A],3.27 ± 0.073
17,KETQQYELEFDTPTSGK [BRR2],3.08 ± 0.045
18,KEVLPDLQNLNLNTDKL [YJL039C/NUP192],2.64 ± 0.085
19,KFDSRIRGILMASGSTT [PRP8],2.19 ± 0.13
20,KFENDELAESTTTKIID [LRP1],2.27 ± 0.053
21,KFFQKKIHLYEKKLEDY [YGL172W/NUP49],2.94 ± 0.089
22,KFKLLNGLAIRRAAYGV [RPS3],1.86 ± 0.048
23,KFMTNSTAFVPTIEYVQ [ARP9],2.62 ± 0.041
24,KFRSSILRKSFDFLMNM [RPN2],2.4 ± 0.072
25,KFSLPFEQKGSQTTTND [YLR335W/NUP2],3.09 ± 0.094
26,KFSSRHGQKGVCGIIVK [RET1],3.14 ± 0.12
